system: Escherichia coli TOP10; assay: shrunken log2 fold change of peptide-encoding DNA abundance (4.5 h post-induction vs induction); higher = less antimicrobial activity (less host growth inhibition); details: time post-induction: 4.5 h; library: site-saturation at positions 5, 18, 19, 20
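Also: peptides expressed intracellularly from a pBAD plasmid library in pooled LB shake-flask culture, induced with 0.3% L-arabinose, DNA abundance read by NGS, three biological replicates, DESeq2 with apeglm shrinkage.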

Sequence | shrunken log2 fold change
RRIRCRPPRLPRPRPRPTAWPRP | 0.79
RRIRNRPPRLPRPRPRPDLHPRP | 1.8
RRIRRRPPRLPRPRPRPLPNPRP | -0.0597
RRIRFRPPRLPRPRPRPRDTPRP | 0.0411
RRIRIRPPRLPRPRPRPWACPRP | -0.406
RRIRLRPPRLPRPRPRPEKSPRP | 0.123
RRIRYRPPRLPRPRPRPQHMPRP | -0.629
RRIRHRPPRLPRPRPRPRCMPRP | -0.153
RRIRIRPPRLPRPRPRPQNQPRP | -1.03
RRIRMRPPRLPRPRPRPFPYPRP | -0.23
RRIRARPPRLPRPRPRPLVQPRP | 0.561
RRIRERPPRLPRPRPRPAWWPRP | 0.00222
RRIRFRPPRLPRPRPRPGTHPRP | 1.26
RRIRARPPRLPRPRPRPQPPPRP | 0.715
RRIRPRPPRLPRPRPRPVWGPRP | 0.0591
RRIRTRPPRLPRPRPRPHSTPRP | -0.374
RRIRMRPPRLPRPRPRPNDKPRP | 0.145
RRIRSRPPRLPRPRPRPLGYPRP | -0.351
RRIRLRPPRLPRPRPRPLVMPRP | -0.0627
RRIRYRPPRLPRPRPRPQLAPRP | -0.228
RRIRGRPPRLPRPRPRPWDPPRP | -0.11
RRIRKRPPRLPRPRPRPSRWPRP | 0.639
RRIRLRPPRLPRPRPRPQNDPRP | -0.271
RRIRVRPPRLPRPRPRPMMEPRP | 0.00705
RRIRGRPPRLPRPRPRPYACPRP | -0.00589

Sequence | shrunken log2 fold change
RRIRVRPPRLPRPRPRPNRNPRP | -0.238
RRIRCRPPRLPRPRPRPNPSPRP | 0.0638
RRIRNRPPRLPRPRPRPHLTPRP | -0.0934
RRIRCRPPRLPRPRPRPGQNPRP | 0.261
RRIRSRPPRLPRPRPRPTIAPRP | 0.105
RRIRFRPPRLPRPRPRPYNHPRP | -1.2
RRIRYRPPRLPRPRPRPCSEPRP | -0.067
RRIRDRPPRLPRPRPRPWETPRP | 0.192
RRIRCRPPRLPRPRPRPMVEPRP | 0.237
RRIRDRPPRLPRPRPRPMCPPRP | 0.00942
RRIRYRPPRLPRPRPRPTCIPRP | -0.257
RRIRERPPRLPRPRPRPPPEPRP | 0.574
RRIRERPPRLPRPRPRPPCSPRP | -0.258
RRIRGRPPRLPRPRPRPWADPRP | 0.142
RRIRQRPPRLPRPRPRPAHPPRP | 0.181
RRIRKRPPRLPRPRPRPVPDPRP | 0.418
RRIRGRPPRLPRPRPRPWLRPRP | 0.306
RRIRNRPPRLPRPRPRPCIVPRP | 0.045
RRIRKRPPRLPRPRPRPCMGPRP | 0.045
RRIRTRPPRLPRPRPRPNITPRP | -0.664
RRIRKRPPRLPRPRPRPMVRPRP | 0.00145
RRIRGRPPRLPRPRPRPIHHPRP | -0.0166
RRIRPRPPRLPRPRPRPEIDPRP | -0.0829
RRIRGRPPRLPRPRPRPAMYPRP | 0.369
RRIRPRPPRLPRPRPRPKARPRP | 0.691

Sequence | shrunken log2 fold change
RRIRSRPPRLPRPRPRPMKKPRP | -0.0833
RRIRQRPPRLPRPRPRPVYLPRP | -0.206
RRIRLRPPRLPRPRPRPQYRPRP | -0.188
RRIRVRPPRLPRPRPRPLCSPRP | -0.0335
RRIRYRPPRLPRPRPRPNCGPRP | -0.00237
RRIRYRPPRLPRPRPRPHYPPRP | -1.84
RRIRPRPPRLPRPRPRPHPCPRP | -0.105
RRIRHRPPRLPRPRPRPTNGPRP | -0.154
RRIRERPPRLPRPRPRPDFHPRP | -0.498
RRIRERPPRLPRPRPRPYWLPRP | -0.294
RRIRIRPPRLPRPRPRPYFRPRP | -0.0907
RRIRLRPPRLPRPRPRPDQPPRP | -0.129
RRIRERPPRLPRPRPRPTCMPRP | -0.0554
RRIRNRPPRLPRPRPRPVCHPRP | -0.169
RRIRVRPPRLPRPRPRPRTAPRP | 0.287
RRIRFRPPRLPRPRPRPLLIPRP | -0.385
RRIRIRPPRLPRPRPRPRHGPRP | -0.136
RRIRRRPPRLPRPRPRPKDRPRP | 0.09
RRIRARPPRLPRPRPRPGQIPRP | 0.216
RRIRNRPPRLPRPRPRPDSRPRP | -0.0141
RRIRYRPPRLPRPRPRPQQEPRP | -0.0075
RRIRRRPPRLPRPRPRPMWDPRP | 0.164
RRIRSRPPRLPRPRPRPHNKPRP | -0.71
RRIRFRPPRLPRPRPRPGTFPRP | -0.492
RRIRNRPPRLPRPRPRPLNCPRP | -0.415

Source: the supplement of paper PMC9112550, “Optimization of the antimicrobial peptide Bac7 by deep mutational scanning” (BMC Biology, 2022)
